From article PMC7419741 (QRB Discovery, 2020)

Target: T1, IL8
T1 construct: interleukin 8 (CXCL8), ligand of CXCR2
Assay: MST; 5 nM NT647-labelled receptor-Fc against a gradient of ligand; 1x PBS, 10 mM DTT, arginine at different concentrations; Monolith NT.115 pico, 25°C; data from the early T-Jump period; Kd model (law of mass action)
Conditions: both partners purified

B1: CXCR2^QTY–Fc (Fc fusion)
chain: MEDFNMESDSFEDFWKGEDLSNYSYSSTLPPFLLDAAPCEPESLEINKYYTTTTYAQTYQQSQQGNSQTMQTTQYSRVGRSVTDTYQQNQAQADQQYAQTQPTWAASKVNGWIFGTFLCKTTSQQKETNYYSGTQQQACTSTDRYLAIVHATRTLTQKRYLVKYTCQSTWGQSQQQAQPTQQYRRTVYSSNVSPACYEDMGNNTANWRMQQRTQPQSYGYTTPQQTMQYCYGFTLRTLFKAHMGQKHRAMRTTYATTQTYQQCWQPYNQTQQADTLMRTQVIQETCERRNHIDRAQDATETQGTQHSCQNPQTYAFIGQKFRHGLLKILAIHGLISKDSLPKDSRPSFVGSSSGHTSTTL
modifications: NT647 fluorescent dye (Monolith NT protein labelling kit RED-NHS)
Kd: 0.0603 ± 0.021 µM
